Tests used:
[1] = target: Bos1 model TA substrate labelled with 7-hydroxycoumaryl ethylglycine (Cm) (S. cerevisiae) (UniProt P25385); assay: FRET or BRET; equilibrium titration of TA transfer from Sgt2 to Get3: 20-50 nM purified Sgt2•TA^Cm, 150 nM Sgt2, 150 nM Get4/5, 2 mM ATP, varied Get3^BDP; GET buffer, 25°C; apparent K1/2 at 150 nM Sgt2
[2] = target: Bos1-FisC model TA substrate labelled with Cm (S. cerevisiae); assay: as above
[3] = target: 3AG model TA substrate labelled with Cm (S. cerevisiae) (UniProt P25385); assay: as above
[4] = target: 4AG model TA substrate labelled with Cm (S. cerevisiae) (UniProt P25385); assay: as above
[5] = target: 5AG model TA substrate labelled with Cm (S. cerevisiae) (UniProt P25385); assay: as above
[6] = target: 2AG model TA substrate labelled with Cm (S. cerevisiae) (UniProt P25385); assay: as above
[7] = target: Bos1 model TA substrate labelled with 7-hydroxycoumaryl ethylglycine (Cm) (S. cerevisiae) (UniProt P25385); assay: FRET or BRET; stopped-flow time courses of TA transfer with Get4/5: ~50 nM Sgt2•TA^Cm in 150 nM Sgt2 mixed 1:1 with 400 nM Get3^BDP, 400 nM Get4/5, 2 mM ATP; donor fluorescence at 445 nm; biphasic fit
[8] = target: Bos1-FisC model TA substrate labelled with Cm (S. cerevisiae); assay: as above
[9] = target: 3AG model TA substrate labelled with Cm (S. cerevisiae) (UniProt P25385); assay: as above
[10] = target: 4AG model TA substrate labelled with Cm (S. cerevisiae) (UniProt P25385); assay: as above
[11] = target: 5AG model TA substrate labelled with Cm (S. cerevisiae) (UniProt P25385); assay: as above
[12] = target: 2AG model TA substrate labelled with Cm (S. cerevisiae) (UniProt P25385); assay: as above
[13] = target: Bos1 model TA substrate labelled with 7-hydroxycoumaryl ethylglycine (Cm) (S. cerevisiae) (UniProt P25385); assay: FRET or BRET; stopped-flow time course of TA transfer from Sgt2 to Get3^BDP without Get4/5
[14] = target: Bos1 model TA substrate labelled with 7-hydroxycoumaryl ethylglycine (Cm) (S. cerevisiae) (UniProt P25385); assay: FRET or BRET; pulse-chase: 20-50 nM preformed purified Get3^BDP•TA^Cm chased with a 10-fold excess of unlabeled Get3; loss of FRET followed in time
[15] = target: Bos1-FisC model TA substrate labelled with Cm (S. cerevisiae); assay: as above
[16] = target: 3AG model TA substrate labelled with Cm (S. cerevisiae) (UniProt P25385); assay: as above
[17] = target: 4AG model TA substrate labelled with Cm (S. cerevisiae) (UniProt P25385); assay: as above
[18] = target: 6AG model TA substrate labelled with Cm (S. cerevisiae) (UniProt P25385); assay: as above
[19] = target: 5AG model TA substrate labelled with Cm (S. cerevisiae) (UniProt P25385); assay: as above
[20] = target: 2AG model TA substrate labelled with Cm (S. cerevisiae) (UniProt P25385); assay: as above

K1/2 (Get3 for 50% TA transfer from Sgt2, at 150 nM Sgt2) [1]: 5.2 nM | K1/2 (Get3 for 50% TA transfer from Sgt2, at 150 nM Sgt2) [2]: 9.2 nM | K1/2 (Get3 for 50% TA transfer from Sgt2, at 150 nM Sgt2) [3]: 3.7 nM | K1/2 (Get3 for 50% TA transfer from Sgt2, at 150 nM Sgt2) [4]: 5.7 nM | K1/2 (Get3 for 50% TA transfer from Sgt2, at 150 nM Sgt2) [5]: 10 nM | K1/2 (Get3 for 50% TA transfer from Sgt2, at 150 nM Sgt2) [6]: 6.4 nM | k fast of TA transfer from Sgt2 to Get3 (fast phase) [7]: 0.047 s⁻¹ | k slow of TA transfer from Sgt2 to Get3 (slow phase) [7]: 0.011 s⁻¹ | t1/2 of TA transfer from Sgt2 to Get3 [7]: 17.7 s | k fast of TA transfer from Sgt2 to Get3 (fast phase) [8]: 0.063 s⁻¹ | k slow of TA transfer from Sgt2 to Get3 (slow phase) [8]: 0.009 s⁻¹ | t1/2 of TA transfer from Sgt2 to Get3 [8]: 12.3 s | k fast of TA transfer from Sgt2 to Get3 (fast phase) [9]: 0.164 s⁻¹ | k slow of TA transfer from Sgt2 to Get3 (slow phase) [9]: 0.017 s⁻¹ | t1/2 of TA transfer from Sgt2 to Get3 [9]: 4.8 s | k fast of TA transfer from Sgt2 to Get3 (fast phase) [10]: 0.183 s⁻¹ | k slow of TA transfer from Sgt2 to Get3 (slow phase) [10]: 0.033 s⁻¹ | t1/2 of TA transfer from Sgt2 to Get3 [10]: 6.3 s | k fast of TA transfer from Sgt2 to Get3 (fast phase) [11]: 0.151 s⁻¹ | k slow of TA transfer from Sgt2 to Get3 (slow phase) [11]: 0.023 s⁻¹ | t1/2 of TA transfer from Sgt2 to Get3 [11]: 11.8 s | k fast of TA transfer from Sgt2 to Get3 (fast phase) [12]: 0.077 s⁻¹ | k slow of TA transfer from Sgt2 to Get3 (slow phase) [12]: 0.007 s⁻¹ | t1/2 of TA transfer from Sgt2 to Get3 [12]: 13.5 s | k fast of TA transfer from Sgt2 to Get3 (fast phase) [13]: 0.0094 s⁻¹ | k slow of TA transfer from Sgt2 to Get3 (slow phase) [13]: 0.003 s⁻¹ | t1/2 of TA transfer from Sgt2 to Get3 [13]: 98 s | koff [14]: 0.0003 s⁻¹ | koff [15]: 0.000483 s⁻¹ | koff [16]: 0.000433 s⁻¹ | koff [17]: 0.000283 s⁻¹ | koff [18]: 0.00333 s⁻¹ | koff [19]: 0.000567 s⁻¹ | koff [20]: 0.000383 s⁻¹
B1: BODIPY-FL-labeled ybbR-Get3 (enzyme)
chain: MDLTVEPNLHSLITSTTHKWIFVGGKGGVGKTTSSCSIAIQMALSQPNKQFLLISTDPAHNLSDAFGEKFGKDARKVTGMNNLSCMEIDPSAALKDMNDMAVSRANNNGSDGQGDDLGSLLQGGALADLTGSIPGIDEALSFMEVMKHIKRQEQGEGETFDTVIFDTAPTGHTLRFLQLPNTLSKLLEKFGEITNKLGPMLNSFMGAGNVDISGKLNELKANVETIRQQFTDPDLTTFVCVCISEFLSLYETERLIQELISYDMDVNSIIVNQLLFAENDQEHNCKRCQARWKMQKKYLDQIDELYEDFHVVKMPLCAGEIRGLNNLTKFSQFLNKEYNPITDGKVIYELEDKE
modifications: CoA-BODIPY-FL enzymatically conjugated to the ybbR tag by the Sfp phosphopantetheinyl transferase

— article PMC5214336
